Data reported in publication PMC12416549 (2024).
Numbering of substitutions follows the chain as printed. Numbers in names are those of the source. One block for each binder: values may come before it.

Target: T1, TNFR1 (Homo sapiens, UniProt P19438)
T1 chain: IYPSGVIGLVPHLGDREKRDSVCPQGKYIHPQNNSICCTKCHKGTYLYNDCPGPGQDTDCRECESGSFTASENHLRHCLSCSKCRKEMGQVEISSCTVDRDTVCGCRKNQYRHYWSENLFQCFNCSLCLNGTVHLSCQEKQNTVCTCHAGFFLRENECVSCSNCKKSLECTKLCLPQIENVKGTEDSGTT
Assay: yeast display SC50

apparent Kd (screen): 1.54 nM
B1: E61H (designed binder)
chain: SMEEEVEKAAKEYEKKKKEAIEKHLEKLKAKDKEAAERFLKELEEAAKEYAKDEAKTMSEHEAKRRAKKYKEKVLLSELSEEEQKEIKEAEEKLVRTILKYVEEAAK

apparent Kd (screen): 0.539 nM
B2: K29N (designed binder)
chain: B1 chain with K29N, H61E

apparent Kd (screen): 2.73 nM
B3: R38G (designed binder)
chain: B1 chain with R38G, H61E

apparent Kd (screen): 12.5 nM
B4: E54H (designed binder)
chain: B1 chain with E54H, H61E

apparent Kd (screen): 0.869 nM
B5: K17H (designed binder)
chain: B1 chain with K17H, H61E

apparent Kd (screen): 1.86 nM
B6: Y13L (designed binder)
chain: B1 chain with Y13L, H61E

apparent Kd (screen): 0.593 nM
B7: K71R (designed binder)
chain: B1 chain with H61E, K71R

apparent Kd (screen): 0.49 nM
B8: L40Q (designed binder)
chain: B1 chain with L40Q, H61E

apparent Kd (screen): 0.49 nM
B9: E78C (designed binder)
chain: B1 chain with H61E, E78C

apparent Kd (screen): 5.84 nM
B10: L75D (designed binder)
chain: B1 chain with H61E, L75D

apparent Kd (screen): 1.86 nM
B11: E61Y (designed binder)
chain: B1 chain with H61Y

apparent Kd (screen): 0.446 nM
B12: A55M (designed binder)
chain: B1 chain with A55M, H61E

apparent Kd (screen): 2.73 nM
B13: T57A (designed binder)
chain: B1 chain with T57A, H61E

apparent Kd (screen): 2.73 nM
B14: E7T (designed binder)
chain: B1 chain with E7T, H61E

apparent Kd (screen): 22.2 nM
B15: K69P (designed binder)
chain: B1 chain with H61E, K69P

apparent Kd (screen): 1.54 nM
B16: E4W (designed binder)
chain: B1 chain with E4W, H61E

apparent Kd (screen): 0.49 nM
B17: E19L (designed binder)
chain: B1 chain with E19L, H61E

apparent Kd (screen): 0.653 nM
B18: K31G (designed binder)
chain: B1 chain with K31G, H61E

apparent Kd (screen): 0.446 nM
B19: E83M (designed binder)
chain: B1 chain with H61E, E83M

apparent Kd (screen): 4.39 nM
B20: A46K (designed binder)
chain: B1 chain with A46K, H61E

apparent Kd (screen): 10.4 nM
B21: D53W (designed binder)
chain: B1 chain with D53W, H61E

apparent Kd (screen): 1.27 nM
B22: E78T (designed binder)
chain: B1 chain with H61E, E78T

apparent Kd (screen): 1.05 nM
B23: F39W (designed binder)
chain: B1 chain with F39W, H61E

apparent Kd (screen): 1.16 nM
B24: L76I (designed binder)
chain: B1 chain with H61E, L76I

apparent Kd (screen): 3 nM
B25: V6L (designed binder)
chain: B1 chain with V6L, H61E

apparent Kd (screen): 1.05 nM
B26: M2L (designed binder)
chain: B1 chain with M2L, H61E

apparent Kd (screen): 0.718 nM
B27: K64S (designed binder)
chain: B1 chain with H61E, K64S

apparent Kd (screen): 20.2 nM
B28: E7F (designed binder)
chain: B1 chain with E7F, H61E

apparent Kd (screen): 11.4 nM
B29: E91M (designed binder)
chain: B1 chain with H61E, E91M

apparent Kd (screen): 0.869 nM
B30: E104W (designed binder)
chain: B1 chain with H61E, E104W

apparent Kd (screen): 3 nM
B31: K16S (designed binder)
chain: B1 chain with K16S, H61E

apparent Kd (screen): 1.27 nM
B32: E61M (designed binder)
chain: B1 chain with H61M

apparent Kd (screen): 7.07 nM
B33: F39D (designed binder)
chain: B1 chain with F39D, H61E

apparent Kd (screen): 12.5 nM
B34: A46L (designed binder)
chain: B1 chain with A46L, H61E

apparent Kd (screen): 0.539 nM
B35: K71I (designed binder)
chain: B1 chain with H61E, K71I

apparent Kd (screen): 1.69 nM
B36: E4F (designed binder)
chain: B1 chain with E4F, H61E

apparent Kd (screen): 1.86 nM
B37: A105L (designed binder)
chain: B1 chain with H61E, A105L

apparent Kd (screen): 0.446 nM
B38: T97Q (designed binder)
chain: B1 chain with H61E, T97Q

apparent Kd (screen): 7.78 nM
B39: K88P (designed binder)
chain: B1 chain with H61E, K88P

apparent Kd (screen): 1.69 nM
B40: S80I (designed binder)
chain: B1 chain with H61E, S80I

apparent Kd (screen): 1.54 nM
B41: A63W (designed binder)
chain: B1 chain with H61E, A63W

apparent Kd (screen): 0.446 nM
B42: E19C (designed binder)
chain: B1 chain with E19C, H61E

apparent Kd (screen): 1.16 nM
B43: E34C (designed binder)
chain: B1 chain with E34C, H61E
